In patent publication US20260028403A1 (Zymeworks, published 2026):

How the values were obtained:
Human CLDN18.2 = molecular target: T1, Human CLDN18.2 (human); experiment: flow cytometry, SNU 601 cells
T1 construct: on transfected HEK293-6E cells or native on SNU 601 cells
Procedure: To determine the impact of the trispecific construct format on the construct's ability to binding CLDN18.2, the binding affinity to CLDN18.2 was measured for certain constructs using flow cytometry as described below.
To that end, cells (>80% viability) were resuspended to 1×10⁶ cells/mL in FACS buffer (PBS+2% FBS; Gibco) and seeded in a 96 well v-bottom plate (Sarstedt). Cells were mixed with antibody dilutions and incubated at 4° C. for one hour. Following incubation, cells were washed twice by adding 150 mL FACS buffer and centrifuging for 400×g for 3 minutes. […] Cells were washed twice by adding 150 mL FACS buffer and centrifuging for 400×g for 3 minutes. Cells were resuspended in FACS buffer and acquired on the BD LSRFortessa Cell Analyzer.

[1] = molecular target: T2, Recombinant human CD3 epsilon/delta heterodimer, his tag protein (Acro Biosystems) (human, UniProt P07766 23-126; P04234 22-105); experiment: SPR Biacore T200, CD3 e/d-his on CM5, construct injected, 1:1 model;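 note: measured at 25 °C in HEPES-buffered saline with EDTA and Tween 20 at pH 7.4, values are means of three independent runs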
T2 construct: bought

[2] = molecular target: T3, Recombinant human/cynomolgus/rhesus macaque CD28 mouse IgG2a Fc fusion protein (Acro Biosystems) (human/cynomolgus/rhesus macaque, UniProt P10747 19-152); experiment: SPR Biacore T200, CD28-mIgG2a Fc on CM5, construct injected, 1:1 model;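 note: fc fusion captured by amine coupling, run at 25 °C in HEPES buffer pH 7.4, association 140-500 s then dissociation 600-1200 s, values averaged over three independent runs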
T3 construct: bought; also called huCD28

Binder | Bmax (Human CLDN18.2) [MFI] | EC50 (Human CLDN18.2) [nM] | Kd [1] [nM] | koff [1] [s⁻¹] | kon [1] [M⁻¹ s⁻¹] | Kd [2] [nM] | koff [2] [s⁻¹] | kon [2] [M⁻¹ s⁻¹]
v37633 (trispecific antibody, human IgG1, lambda, L234A L235A, Het Fc, FcKO; also called CD28xCD3xCldn18.2 trispecific) heavy 1: not shown heavy 2: QVQLVESGGGLVQPGGSLRLSCSVSGIDLSSNPMIWVRQAPGKGLQYIGIIDTDGSTYYADWAKGRFTISKDSTTVYLQINSPRAEDTAVYYCARRLHGSSNGYYDDLWGQGTLVTVSSGGGGSGGGGSGGGGSGGGGSDGQMTQSPSSVSASVGDRVTITCQASQSIYSYLSWYQQKPGQRPKLLIYKASTLASGVPSRFSGSGSGTDFTLTISSVQPEDFATYYCQQGYTVTNVDKNTFGGGTKVEIKAAEPKSSDKTHTCPPCPAPEAAGGPSVFLFPPKPKDTLMISRTPEVTCVVVSVSHEDPEVKFNWYVDGVEVHNAKTKPREEQYNSTYRVVSVLTVLHQDWLNGKEYKCKVSNKALPAPIEKTISKAKGQPREPQVYVLPPSRDELTKNQVSLLCLVKGFYPSDIAVEWESNGQPENNYLTWPPVLDSDGSFFLYSKLTVDKSRWQQGNVFSCSVMHEALHNHYTQKSLSLSPG light: NFMLTQPHSVSESPGKTVTISCKRNTGNIGSNYVNWYQQHEGSSPTTIIYRNDKRPDGVSDRFSGSIDRSSKSASLTISNLKTEDEADYFCQSYSSGFIFGGGTKLTVLGQPKAAPSVTLFPPSSEELQANKATLVCLISDFYPGAVTVAWKADSSPVKAGVETTTPSKQSNNKYAASSYLSLTPEQWKSHRSYSCQVTHEGSTVEKTVAPTECS | 8570 | 40.8 | 135 | 0.0176 | 130000 | 55.1 | 0.0062 | 113000
v37663 (bispecific antibody, human IgG1, lambda, L234A L235A, 13B08 VH-VL scFv); also called anti-(CLDN18.2xCD3) bispecific control) heavy 1: not shown heavy 2: QVQLVESGGGLVQPGGSLRLSCSVSGIDLSSNPMIWVRQAPGKGLQYIGIIDTDGSTYYADWAKGRFTISKDSTTVYLQINSPRAEDTAVYYCARRLHGSSNGYYDDLWGQGTLVTVSSGGGGSGGGGSGGGGSGGGGSDGQMTQSPSSVSASVGDRVTITCQASQSIYSYLSWYQQKPGQRPKLLIYKASTLASGVPSRFSGSGSGTDFTLTISSVQPEDFATYYCQQGYTVTNVDKNTFGGGTKVEIKAAEPKSSDKTHTCPPCPAPEAAGGPSVFLFPPKPKDTLMISRTPEVTCVVVSVSHEDPEVKFNWYVDGVEVHNAKTKPREEQYNSTYRVVSVLTVLHQDWLNGKEYKCKVSNKALPAPIEKTISKAKGQPREPQVYVLPPSRDELTKNQVSLLCLVKGFYPSDIAVEWESNGQPENNYLTWPPVLDSDGSFFLYSKLTVDKSRWQQGNVFSCSVMHEALHNHYTQKSLSLSPG light: NFMLTQPHSVSESPGKTVTISCKRNTGNIGSNYVNWYQQHEGSSPTTIIYRNDKRPDGVSDRFSGSIDRSSKSASLTISNLKTEDEADYFCQSYSSGFIFGGGTKLTVLGQPKAAPSVTLFPPSSEELQANKATLVCLISDFYPGAVTVAWKADSSPVKAGVETTTPSKQSNNKYAASSYLSLTPEQWKSHRSYSCQVTHEGSTVEKTVAPTECS | 9200 | 31.3 | 76.4 | 0.0157 | 206000 |  |  | 
